According to publication PMC4371549 (The Biochemical journal, 2010):
Where two headings read alike, the source gives them in different places.

Key:
Assay in all cases: resonant mirror detection
[1] = molecular target: recombinant 4.1R^135 (135kDa isoform of protein 4.1R) (human, UniProt P11171 1-864)
[2] = molecular target: full length recombinant human protein 4.1G (human, UniProt O43491 1-1005)
complex of 4.1G and CaM [3] = molecular target: T1, complex of 4.1G and CaM (human | , UniProt O43491 1-1005; P0DP23 1-149)
complex of 4.1G and CaM [4] = molecular target: T1, complex of 4.1G and CaM; remark: listed apart in the source

recombinant 4.1R^135 (135kDa isoform of protein 4.1R), sequence (P11171 whole entry, canonical isoform): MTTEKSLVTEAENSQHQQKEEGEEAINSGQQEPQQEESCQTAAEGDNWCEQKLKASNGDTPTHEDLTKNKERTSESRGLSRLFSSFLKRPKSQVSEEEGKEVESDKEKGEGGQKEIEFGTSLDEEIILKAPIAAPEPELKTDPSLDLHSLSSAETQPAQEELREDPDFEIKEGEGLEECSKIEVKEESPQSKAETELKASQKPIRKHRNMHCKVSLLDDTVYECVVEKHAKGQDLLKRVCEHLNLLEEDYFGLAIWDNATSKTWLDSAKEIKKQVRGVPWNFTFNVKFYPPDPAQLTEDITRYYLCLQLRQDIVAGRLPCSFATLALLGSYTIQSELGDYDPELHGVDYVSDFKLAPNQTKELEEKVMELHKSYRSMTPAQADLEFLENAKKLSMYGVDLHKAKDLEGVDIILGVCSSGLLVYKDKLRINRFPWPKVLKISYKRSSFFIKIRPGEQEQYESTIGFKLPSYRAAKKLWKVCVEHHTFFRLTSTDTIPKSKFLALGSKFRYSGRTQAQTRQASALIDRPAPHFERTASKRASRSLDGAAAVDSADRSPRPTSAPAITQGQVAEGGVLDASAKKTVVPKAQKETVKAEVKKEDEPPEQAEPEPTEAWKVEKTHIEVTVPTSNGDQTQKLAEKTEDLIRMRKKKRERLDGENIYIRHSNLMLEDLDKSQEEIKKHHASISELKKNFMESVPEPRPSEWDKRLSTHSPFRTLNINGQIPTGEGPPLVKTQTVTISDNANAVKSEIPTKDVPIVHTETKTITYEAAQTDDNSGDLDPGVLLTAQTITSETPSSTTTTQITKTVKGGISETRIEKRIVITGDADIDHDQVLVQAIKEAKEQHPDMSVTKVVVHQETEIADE
full length recombinant human protein 4.1G, sequence (O43491 whole entry): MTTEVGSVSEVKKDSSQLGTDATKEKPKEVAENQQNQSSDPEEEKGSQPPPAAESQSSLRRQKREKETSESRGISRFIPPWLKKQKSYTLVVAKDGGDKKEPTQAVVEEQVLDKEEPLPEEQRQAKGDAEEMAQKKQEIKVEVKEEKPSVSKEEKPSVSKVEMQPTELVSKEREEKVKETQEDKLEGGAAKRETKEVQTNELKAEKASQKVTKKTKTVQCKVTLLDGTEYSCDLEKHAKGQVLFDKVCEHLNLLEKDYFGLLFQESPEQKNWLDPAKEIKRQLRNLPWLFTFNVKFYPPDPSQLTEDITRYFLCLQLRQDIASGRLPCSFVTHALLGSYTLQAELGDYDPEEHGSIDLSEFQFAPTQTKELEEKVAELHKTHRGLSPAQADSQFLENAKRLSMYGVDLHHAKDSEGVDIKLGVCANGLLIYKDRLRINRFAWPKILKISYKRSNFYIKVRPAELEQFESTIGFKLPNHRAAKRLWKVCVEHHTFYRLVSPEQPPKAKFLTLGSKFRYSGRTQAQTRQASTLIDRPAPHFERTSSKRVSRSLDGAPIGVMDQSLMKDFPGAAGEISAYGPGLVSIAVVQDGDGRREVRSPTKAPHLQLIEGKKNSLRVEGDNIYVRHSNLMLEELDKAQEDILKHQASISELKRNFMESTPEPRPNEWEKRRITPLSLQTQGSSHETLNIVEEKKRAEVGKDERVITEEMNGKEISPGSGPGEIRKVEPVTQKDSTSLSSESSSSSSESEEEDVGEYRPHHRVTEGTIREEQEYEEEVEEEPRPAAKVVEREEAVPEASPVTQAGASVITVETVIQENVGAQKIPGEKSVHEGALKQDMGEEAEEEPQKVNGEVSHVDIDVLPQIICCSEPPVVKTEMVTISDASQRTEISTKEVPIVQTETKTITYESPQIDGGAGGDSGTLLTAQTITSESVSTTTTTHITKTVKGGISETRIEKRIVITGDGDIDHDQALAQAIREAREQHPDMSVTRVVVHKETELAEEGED

| Kd [1] [nM] | koff [1] [s⁻¹] | kon [1] [M⁻¹ s⁻¹] | Kd [2] [nM] | koff [2] [s⁻¹] | kon [2] [M⁻¹ s⁻¹] | Kd (complex of 4.1G and CaM [3]) [nM] | koff (complex of 4.1G and CaM [3]) [s⁻¹] | kon (complex of 4.1G and CaM [3]) [M⁻¹ s⁻¹] | Kd (complex of 4.1G and CaM [4]) [nM] | koff (complex of 4.1G and CaM [4]) [s⁻¹] | kon (complex of 4.1G and CaM [4]) [M⁻¹ s⁻¹] | Binder |
| --- | --- | --- | --- | --- | --- | --- | --- | --- | --- | --- | --- | --- |
| 23 | 0.0071 | 310000 | 185 | 0.014 | 80000 | 127 | 0.064 | 510000 | – | – | – | cytoplasmic domain of band 3 (domain or fragment, UniProt P02730 1-403, looked up) MEELQDDYEDMMEENLEQEEYEDPDIPESQMEEPAAHDTEATATDYHTTSHPGTHKVYVELQELVMDEKNQELRWMEAARWVQLEENLGENGAWGRPHLSHLTFWSLLELRRVFTKGTVLLDLQETSLAGVANQLLDRFIFEDQIRPQDREELLRALLLKHSHAGELEALGGVKPAVLTRSGDPSQPLLPQHSSLETQLFCEQGDGGTEGHSPSGILEKIPPDSEATLVLVGRADFLEQPVLGFVRLQEAAELEAVELPVPIRFLFVLLGPEAPHIDYTQLGRAAATLMSERVFRIDAYMAQSRGELLHSLEGFLDCSLVLPPTDAPSEQALLSLVPVQRELLRRRYQSSPAKPDSSFYKGLDLNGGPDDPLQQTGQLFGGLVRDIRRRYPYYLSDITDAFSP |
| 248 | 0.0047 | 19000 | 181 | 0.0085 | 47000 | – | – | – | – | – | – | p55 (natural protein, UniProt Q00013 1-466, looked up) MTLKASEGESGGSMHTALSDLYLEHLLQKRSRPEAVSHPLNTVTEDMYTNGSPAPGSPAQVKGQEVRKVRLIQFEKVTEEPMGITLKLNEKQSCTVARILHGGMIHRQGSLHVGDEILEINGTNVTNHSVDQLQKAMKETKGMISLKVIPNQQSRLPALQMFMRAQFDYDPKKDNLIPCKEAGLKFATGDIIQIINKDDSNWWQGRVEGSSKESAGLIPSPELQEWRVASMAQSAPSEAPSCSPFGKKKKYKDKYLAKHSSIFDQLDVVSYEEVVRLPAFKRKTLVLIGASGVGRSHIKNALLSQNPEKFVYPVPYTTRPPRKSEEDGKEYHFISTEEMTRNISANEFLEFGSYQGNMFGTKFETVHQIHKQNKIAILDIEPQTLKIVRTAELSPFIVFIAPTDQGTQTEALQQLQKDSEAIRSQYAHYFDLSLVNNGVDETLKKLQEAFDQACSSPQWVPVSWVY |
| – | – | – | – | – | – | 155 | 0.013 | 84000 | 1250 | 0.015 | 12000 | RYMYRHKGTYHTNEAKGTEFAESADAALQGDPALQDAGDSSRKEYFI (domain or fragment, UniProt P04921 82-128, looked up) [cytoplasmic domain of glycophorin C] |
| 329 | 0.015 | 42000 | 178 | 0.0066 | 38000 | 197 | 0.014 | 71000 | – | – | – | cytoplasmic domain of CD44 (domain or fragment, UniProt P16070 671-742, looked up) NSRRRCGQKKKLVINSGNGAVEDRKPSGLNGEASKSQEMVHLVNKESSETPDQFMTADETRNLQNVDMKIGV |
